Experimental data from publication PMC4314829, “Unraveling the kinetic diversity of microbial 3-dehydroquinate dehydratases of shikimate pathway” (AMB Express, 2015).

Experiments:
Settings in all cases: DHQ 0.08 to 1.0 mmol/L; assay buffer, pH and temperature not given
[1] = system: O=C1C[C@@](O)(C(=O)O)C[C@@H](O)[C@@H]1O; experiment: purified protein
[2] = substrate: O=C1C[C@@](O)(C(=O)O)C[C@@H](O)[C@@H]1O; experiment: OD234 microplate assay, Lineweaver-Burk; format: biochemical, Gluconobacter oxydans
From the text: OD234 microplate assay, Lineweaver-Burk on DHQase 3007

[3] = substrate: O=C1C[C@@](O)(C(=O)O)C[C@@H](O)[C@@H]1O; experiment: OD234 microplate assay, Lineweaver-Burk; format: biochemical, Paramagnetospirillum magneticum
From the text: OD234 microplate assay, Lineweaver-Burk on DHQase 3037

[4] = substrate: O=C1C[C@@](O)(C(=O)O)C[C@@H](O)[C@@H]1O; experiment: OD234 microplate assay, Lineweaver-Burk; format: biochemical, Natranaerobius thermophilus
From the text: OD234 microplate assay, Lineweaver-Burk on DHQase 3026

[5] = substrate: O=C1C[C@@](O)(C(=O)O)C[C@@H](O)[C@@H]1O; experiment: OD234 microplate assay, Lineweaver-Burk; format: biochemical, Ruminococcus champanellensis
From the text: OD234 microplate assay, Lineweaver-Burk on DHQase 3027

[6] = substrate: O=C1C[C@@](O)(C(=O)O)C[C@@H](O)[C@@H]1O; experiment: OD234 microplate assay, Lineweaver-Burk; format: biochemical, Nocardia brasiliensis
From the text: OD234 microplate assay, Lineweaver-Burk on DHQase 3014

[7] = substrate: O=C1C[C@@](O)(C(=O)O)C[C@@H](O)[C@@H]1O; experiment: OD234 microplate assay, Lineweaver-Burk; format: biochemical, Parageobacillus thermoglucosidasius
From the text: OD234 microplate assay, Lineweaver-Burk on DHQase 3021

[8] = substrate: O=C1C[C@@](O)(C(=O)O)C[C@@H](O)[C@@H]1O; experiment: OD234 microplate assay, Lineweaver-Burk; format: biochemical, Alcanivorax borkumensis
From the text: OD234 microplate assay, Lineweaver-Burk on DHQase 3003

[9] = substrate: O=C1C[C@@](O)(C(=O)O)C[C@@H](O)[C@@H]1O; experiment: OD234 microplate assay, Lineweaver-Burk; format: biochemical, Psychromonas ingrahamii
From the text: OD234 microplate assay, Lineweaver-Burk on DHQase 3010

[10] = substrate: O=C1C[C@@](O)(C(=O)O)C[C@@H](O)[C@@H]1O; experiment: OD234 microplate assay, Lineweaver-Burk; format: biochemical, Metallosphaera cuprina
From the text: OD234 microplate assay, Lineweaver-Burk on DHQase 3030

[11] = substrate: O=C1C[C@@](O)(C(=O)O)C[C@@H](O)[C@@H]1O; experiment: OD234 microplate assay, Lineweaver-Burk; format: biochemical, Streptomyces acidiscabies
From the text: OD234 microplate assay, Lineweaver-Burk on DHQase 3016

[12] = substrate: O=C1C[C@@](O)(C(=O)O)C[C@@H](O)[C@@H]1O; experiment: OD234 microplate assay, Lineweaver-Burk; format: biochemical, Halanaerobium hydrogeniformans
From the text: OD234 microplate assay, Lineweaver-Burk on DHQase 3024

[13] = substrate: O=C1C[C@@](O)(C(=O)O)C[C@@H](O)[C@@H]1O; experiment: OD234 microplate assay, Lineweaver-Burk; format: biochemical, Acetivibrio clariflavus
From the text: OD234 microplate assay, Lineweaver-Burk on DHQase 3025

[14] = substrate: O=C1C[C@@](O)(C(=O)O)C[C@@H](O)[C@@H]1O; experiment: OD234 microplate assay, Lineweaver-Burk; format: biochemical, Crystallibacter crystallopoietes
From the text: OD234 microplate assay, Lineweaver-Burk on DHQase 3012

[15] = substrate: O=C1C[C@@](O)(C(=O)O)C[C@@H](O)[C@@H]1O; experiment: OD234 microplate assay, Lineweaver-Burk; format: biochemical, Thermodesulfobium narugense
From the text: OD234 microplate assay, Lineweaver-Burk on DHQase 3028

Q: What does the source list for DHQase 3009 (Psychrobacter sp. PRwf-1)?
A: Km [1]: 203.24 µM; Vmax [1]: 254 µM/min; kcat [1]: 31.7 s⁻¹; kcat/Km [1]: 160000 M⁻¹ s⁻¹

B1: DHQase 3007 (Gluconobacter oxydans 621H) (protein)
chain: MTAPKVLSRGQMKRPLITVLNGPNLNMLGLRQPGIYGHATLDDVEQVCIQAAERLDVAIDFRQTNGEGELVSWVQECRGRADGIVINPAAYGHTSIALLDALLAVELPVIEVHISNIHRREPFRHHTYVSQAAIGVICGLGVRGYAHALQAITDMIEDEG
notes: full length, codon-optimised synthetic gene, pET28a His tag, E. coli BL21(DE3), Ni-NTA
Q: For B1, which Km [2] is on record?
A: Its Km is 777.75 µM.

Q: And the Vmax [2]?
A: The Vmax was 146 µM/min.

Q: What about the kcat [2] of the same molecule?
A: The kcat was 77.1 s⁻¹.

Q: And the kcat/Km [2]?
A: The kcat/Km was 100000 M⁻¹ s⁻¹.

B2: DHQase 3037 (Paramagnetospirillum magneticum AMB-1) (protein)
chain: MLGTRQPELYGTETLADIEAACRTHADSLGLTVEFSQTNMEGELVTSIQKCRGRAVGIIINAGAYTHTSVAILDALLAAEVPAIEVHLSNIHQRDSFRHHSYVAKAAKGMICGLGSHGYILALDALARLIKGNAEA
notes: as for B1
Q: What does the source list for B2?
A: Km [3]: 119.97 µM; Vmax [3]: 232 µM/min; kcat [3]: 73.2 s⁻¹; kcat/Km [3]: 610000 M⁻¹ s⁻¹

B3: DHQase 3026 (Natranaerobius thermophilus JW/NM-WN-LF) (protein)
chain: MKIYVIHGPNINMLGNRESEHYGTQTLEELNSSIIKESESLGIEVEIFQFNSEGDIITKLQEANNYAQGVIINPGAYTHYSIAIRDAIAAISKPVIEVHISNIFNRESFRSHSVIAPVAKGQISGMGFAGYLLALNAFIKTKEG
notes: as for B1
Q: Which Km [4] does the source give for B3 here?
A: The Km was 304.54 µM.

Q: What about the Vmax [4] of the same molecule?
A: The Vmax was 177 µM/min.

Q: What about the kcat [4] of the same molecule?
A: Its kcat is 3.8 s⁻¹.

Q: And the kcat/Km [4]?
A: Its kcat/Km is 10000 M⁻¹ s⁻¹.

B4: DHQase 3027 (Ruminococcus champanellensis 18P13 = JCM 17042) (protein)
chain: MRILVIHGPNLNLLGEREPGIYGKNDLAHVNGAILTRAKELGVECEVFQSNHEGEILVRLHEARHAFDGVVLNAGAYTHYSYAIRDAIAAIRIPCVEVHISNVHAREEFRHTSVIAPACLGVVCGFGGDSYLLALEGLVRHCAGQKTL
notes: as for B1
Q: What does the source list for B4?
A: Km [5]: 255.54 µM; Vmax [5]: 360 µM/min; kcat [5]: 50.2 s⁻¹; kcat/Km [5]: 200000 M⁻¹ s⁻¹

B5: DHQase 3014 (Nocardia brasiliensis ATCC 700358) (protein)
chain: MSAPGPILVLNGPNLNMLGTRQPEVYGSATLDDVVELCRQTAERYGREIAAFQSNSEGALIDRIHRARGVESAIVINPGGLTHTSVALRDALVIPEVPIVEVHISNVHAREEFRHHSYISPIATAVVAGMGIQGYAAAIEFLVRSA
notes: as for B1
Q: How did the Km [6] turn out when B5 was run?
A: Its Km is 151.51 µM.

Q: What about the Vmax [6] of the same molecule?
A: Its Vmax is 216 µM/min.

Q: And the kcat [6]?
A: The kcat was 3.83 s⁻¹.

Q: What about the kcat/Km [6] of the same molecule?
A: Its kcat/Km is 30000 M⁻¹ s⁻¹.

B6: DHQase 3021 (Parageobacillus thermoglucosidasius) (protein)
chain: MAHLLLINGPNLNLLGKREPHIYGSTTLDSLEQELISFANEHGAALTCFQSNHEGAIIDRIHEAEGKYDGIILNAGAFTHYSYAIRDAIASISIPVVEVHISNIHAREPFRHQSVIAPVVAGQIVGFGLAGYRLAILALLEIKGRGDK
notes: as for B1
Q: How did the Km [7] turn out when B6 was run?
A: Its Km is 133.97 µM.

Q: What about the Vmax [7] of the same molecule?
A: The Vmax was 130 µM/min.

Q: What about the kcat [7] of the same molecule?
A: The kcat was 5.33 s⁻¹.

Q: What about the kcat/Km [7] of the same molecule?
A: The kcat/Km was 40000 M⁻¹ s⁻¹.

B7: DHQase 3003 (Alcanivorax borkumensis SK2) (protein)
chain: MITANNDKFARGPILASILVLHGPNLNLLGTREPDKYGHTTLADINQQLQEQASKAGHHLQHLQSNAEYELVECIHDAHTEGVDFIIINPAAFTHTSVALRDALLAVNIPFIEVHLSNVHARETFRHHSFFSDIAKGVICGLGAIGYALALTAALEQLDD
notes: as for B1
Q: Which results are given for B7?
A: Km [8]: 210.71 µM; Vmax [8]: 80.4 µM/min; kcat [8]: 13.5 s⁻¹; kcat/Km [8]: 60000 M⁻¹ s⁻¹

B8: DHQase 3010 (Psychromonas ingrahamii 37) (protein)
chain: MTQQIKLLVLNGPNLNLLGQREPEVYGSKTLDDIIKALTDEAALQNVALSHLQSNREYELIEKIHDAFEKIDFIIINPAAFTHTSVALRDALLGVNIPFIEVHLSNVHARESFRHHSYLSDIAQGVICGLGAKGYSFALQSAIGKLRNI
notes: as for B1
Q: What does the source list for B8?
A: Km [9]: 202.55 µM; Vmax [9]: 48 µM/min; kcat [9]: 10.6 s⁻¹; kcat/Km [9]: 50000 M⁻¹ s⁻¹

B9: DHQase 3030 (Metallosphaera cuprina Ar-4) (protein)
chain: MFSLMKPEIVVSLPVTRPDDLNKVNKIDGLVELRLDYSTELPNPEELIPFKHKVLVTLRDKEEGGRIKYDVDFKAKYLERLNELGILYDVEASFLERRKIEYVGKIVSAHYFSSLPSTEEIDQLFRKYEGAYTIKVAVASLPGYRELLSYVSGKPNATFMPMSNDPIERLAFSLLGSKLLYTYLESPTAQGQLSYTQAKQILECIFK
notes: as for B1
Q: Which results are given for B9?
A: Km [10]: 92.76 µM; Vmax [10]: 68.4 µM/min; kcat [10]: 3.86 s⁻¹; kcat/Km [10]: 40000 M⁻¹ s⁻¹

B10: DHQase 3016 (Streptomyces acidiscabies) (protein)
chain: MPRTLANAPIMILNGPNLNLLGQRQPEIYGSDTLADVEALCVKAAATHGGTVDFRQSNHEGELVDWIHEARMDHCGIVINPGAYSHTSVAILDALNTCDGLPVIEVHISNIHKREAFRHHSYVSLRADGVIAGCGVQGYVFGVERVAALAGEGTARA
notes: as for B1
Q: Which Km [11] does the source give for B10 here?
A: Its Km is 141.53 µM.

Q: And the Vmax [11]?
A: Its Vmax is 745 µM/min.

Q: And the kcat [11]?
A: Its kcat is 212 s⁻¹.

Q: And the kcat/Km [11]?
A: Its kcat/Km is 1.5e+06 M⁻¹ s⁻¹.

B11: DHQase 3024 (Halanaerobium hydrogeniformans) (protein)
chain: MQKVAVIHGPNLNMLGLREPEIYGKNNLEMVNKNLKRKAKELDFEIEIMQSNHEGEIVDYLHQNFEQLDGVIINPGGLTHTSVILRDALAAVRLPVIEVHISNIHKREEFRHKSLTAAVAVGQITGLGVKGYTLALEGLKSILGREKY
notes: as for B1
Q: With B11 as the molecule, how does the Km [12] read?
A: Its Km is 526.07 µM.

Q: What about the Vmax [12] of the same molecule?
A: Its Vmax is 374 µM/min.

Q: What about the kcat [12] of the same molecule?
A: The kcat was 75.1 s⁻¹.

Q: What about the kcat/Km [12] of the same molecule?
A: Its kcat/Km is 140000 M⁻¹ s⁻¹.

B12: DHQase 3025 (Acetivibrio clariflavus DSM 19732) (protein)
chain: MKKILIINGPNLNLLGTREKEVYGTETLDDIAKKVAEEAAKLNVNIEFFQSNHEGDIIDKIHAARGNTDAIIINPGAYTHYSIAIRDAIKAVEIPTIEIHLSNIHAREEFRSHSVIAPVCVGQICGFGSNSYILGLNAAALL
notes: as for B1
Q: How did the Km [13] turn out when B12 was run?
A: The Km was 368.46 µM.

Q: And the Vmax [13]?
A: Its Vmax is 353 µM/min.

Q: And the kcat [13]?
A: Its kcat is 59.6 s⁻¹.

Q: What about the kcat/Km [13] of the same molecule?
A: The kcat/Km was 160000 M⁻¹ s⁻¹.

B13: DHQase 3012 (Arthrobacter crystallopoietes BAB-32) (protein)
chain: MGNMSEHSTGSSTRKLLVLNGPNLNLLGTREPQIYGSDTLEDAETLAARAAEAHGLAVECLQSNHEGVLIDAIHAARGTAAGIVINPGGYTHTSVALRDALSGVDLPVVEVHISNIHRREEFRHHSYISGIAVAVIAGAGISGYKFAVDLLASRL
notes: as for B1
Q: Which results are given for B13?
A: Km [14]: 448.50 µM; Vmax [14]: 4000 µM/min; kcat [14]: 185 s⁻¹; kcat/Km [14]: 410000 M⁻¹ s⁻¹

B14: DHQase 3028 (Thermodesulfobium narugense DSM 14796) (protein)
chain: MKKILVINGPNLNMLGTREPNIYGSITLHGLEELILNFAKELEMKVDFFQSNHEGDIIDKIHRTFDAYDAFIINPGAFTHYSYAIRDAIASITIPVIEVHLSNVHAREEFRKSSVIAPVCLGQISGLGELSYIAAIVALDKYLQKLEKRA
notes: as for B1
Q: B14 was tested. Which Km [15] did it give?
A: Its Km is 180.72 µM.

Q: And the Vmax [15]?
A: The Vmax was 69.6 µM/min.

Q: And the kcat [15]?
A: The kcat was 6.88 s⁻¹.

Q: What about the kcat/Km [15] of the same molecule?
A: Its kcat/Km is 40000 M⁻¹ s⁻¹.
